We go through 1 protein from patent US6969760.

The target of the series is T1, wild type EPO receptor (EPOR) expressed in DA3(EPOR) cells or 3T3 fibroblasts, P14753.
T1 chain: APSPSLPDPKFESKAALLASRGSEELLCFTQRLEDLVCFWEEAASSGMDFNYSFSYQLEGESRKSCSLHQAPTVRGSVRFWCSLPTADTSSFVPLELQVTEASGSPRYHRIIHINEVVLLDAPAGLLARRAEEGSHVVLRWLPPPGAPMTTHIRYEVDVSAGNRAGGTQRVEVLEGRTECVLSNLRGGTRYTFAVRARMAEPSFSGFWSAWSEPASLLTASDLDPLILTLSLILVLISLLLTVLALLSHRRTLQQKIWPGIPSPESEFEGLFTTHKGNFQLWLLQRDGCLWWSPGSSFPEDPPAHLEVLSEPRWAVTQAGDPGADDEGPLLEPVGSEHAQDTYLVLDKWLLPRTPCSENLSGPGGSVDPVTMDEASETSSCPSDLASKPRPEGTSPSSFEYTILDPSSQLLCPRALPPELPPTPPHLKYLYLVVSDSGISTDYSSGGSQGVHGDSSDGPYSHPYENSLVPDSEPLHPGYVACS

B1: murine Jak2 protein tyrosine kinase (protein)
chain: MGMACLTMTEMEATSTSPVHQNGDIPGSANSVKQIEPVLQVYLYHSLGQAEGEYLKFPSGEYVAEEICVAASKACGITPVYHNMFALMSETERIWYPPNHVFHIDESTRHDILYRIRFYFPHWYCSGSSRTYRYGVSRGAEAPLLDDFVMSYLFAQWRHDFVHGWIKVPVTHETQEECLGMAVLDMMRIAKEKDQTPLAVYNSVSYKTFLPKCVRAKIQDYHILTRKRIRYRFRRFIQQFSQCKATARNLKLKYLINLETLQSAFYTEQFEVKESARGPSGEEIFATIIITGNGGIQWSRGKHKESETLTEQDVQLYCDFPDIIDVSIKQANQECSNESRIVTVHKQDGKVLEIELSSLKEALSFVSLIDGYYRLTADAHHYLCKEVAPPAVLENIHSNCHGPISMDFAISKLKKAGNQTGLYVLRCSPKDFNKYFLTFAVERENVIEYKHCLITKNENGEYNLSGTKRNFSNLKDLLNCYQMETVRSDSIIFQFTKCCPPKPKDKSNLLVFRTNGISDVQISPTLQRHNNVNQMVFHKIRNEDLIFNESLGQGTFTKIFKGVRREVGDYGQLHKTEVLLKVLDKAHRNYSESFFEAASMMSQLSHKHLVLNYGVCVCGEENILVQEFVKFGSLDTYLKKNKNSINILWKLGVAKQLAWAMHFLEEKSLIHGNVCAKNILLIREEDRRTGNPPFIKLSDPGISITVLPKDILQERIPWVPPECIENPKNLNLATDKWSFGTTLWEICSGGDKPLSALDSQRKLQFYEDKHQLPAPKWTELANLINNCMDYEPDFRPAFRAVIRDLNSLFTPDYELLTENDMLPNMRIGALGFSGAFEDRDPTQFEERHLKFLQQLGKGNFGSVEMCRYDPLQDNTGEVVAVKKLQHSTEEHLRDFEREIEILKSLQHDNIVKYKGVCYSAGRRNLRLIMEYLPYGSLRDYLQKHKERIDHKKLLQYTSQICKGMEYLGTKRYIHRDLATRNILVENENRVKIGDFGLTKVLPQDKEYYKVKEPGESPIFWYAPESLTESKFSVASDVWSFGVVLYELFTYIEKSKSPPVEFMRMIGNDKQGQMIVFHLIELLKSNGRLPRPEGCPDEIYVIMTECWNNNVSQRPSFRDLSFGWIKSGTV
Turning to B1, the “EPO-induced tyrosine phosphorylation of Jak2 in 3T3 fibroblasts expressing EPOR (Jak2 immunoprecipitation, 4G10 blot)” value is reported as “Following stimulation of the cells with EPO, a 130 kDa band, co-migrating with Jak2, was readily detected by a monoclonal antibody against phosphotyrosine (4G10)”.
